For two substances, Kd results are on record in article PMC6138639, “The ZZ-type zinc finger of ZZZ3 modulates the ATAC complex-mediated histone acetylation and gene activation” (Nature Communications, 2018).

In this assay the target is ZZZ3 ZZ domain (aa 800–903), GST cleaved (human) (UniProt Q8IYH5). Kind of assay: other fluorescence titration; tryptophan fluorescence; 1.0 µM ZZZ3 ZZ (aa 800–903) with increasing histone peptide; 25 °C; 20 mM Tris–HCl pH 7.2, 150 mM NaCl, 1 mM DTT; triplicates.
Chain of ZZZ3 ZZ domain (aa 800–903), GST cleaved (human) (Q8IYH5 800-903): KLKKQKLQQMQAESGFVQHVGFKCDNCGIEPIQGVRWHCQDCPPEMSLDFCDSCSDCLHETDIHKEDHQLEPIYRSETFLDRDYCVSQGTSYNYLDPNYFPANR

For orientation: Kd means a measure of binding affinity in units of concentration. A high value points to lower affinity. As for “H3K4ac peptide of the tryptophan fluorescence and NMR titration experiments”, the Kd came to 8.2 µM.
The value for “unmodified H3 peptide of the tryptophan fluorescence and NMR titration experiments” was 29 µM.
